According to US20050196797A1 (JAPAN SCIENCE AND TECHNOLOGY AGENCY, published 2005):

Target: human SMG-1 (hSMG-1) (human, UniProt Q96Q15 1-3661, limits assumed)
Test: cell-based or functional assay

human SMG-1 (hSMG-1), sequence (Q96Q15 whole entry): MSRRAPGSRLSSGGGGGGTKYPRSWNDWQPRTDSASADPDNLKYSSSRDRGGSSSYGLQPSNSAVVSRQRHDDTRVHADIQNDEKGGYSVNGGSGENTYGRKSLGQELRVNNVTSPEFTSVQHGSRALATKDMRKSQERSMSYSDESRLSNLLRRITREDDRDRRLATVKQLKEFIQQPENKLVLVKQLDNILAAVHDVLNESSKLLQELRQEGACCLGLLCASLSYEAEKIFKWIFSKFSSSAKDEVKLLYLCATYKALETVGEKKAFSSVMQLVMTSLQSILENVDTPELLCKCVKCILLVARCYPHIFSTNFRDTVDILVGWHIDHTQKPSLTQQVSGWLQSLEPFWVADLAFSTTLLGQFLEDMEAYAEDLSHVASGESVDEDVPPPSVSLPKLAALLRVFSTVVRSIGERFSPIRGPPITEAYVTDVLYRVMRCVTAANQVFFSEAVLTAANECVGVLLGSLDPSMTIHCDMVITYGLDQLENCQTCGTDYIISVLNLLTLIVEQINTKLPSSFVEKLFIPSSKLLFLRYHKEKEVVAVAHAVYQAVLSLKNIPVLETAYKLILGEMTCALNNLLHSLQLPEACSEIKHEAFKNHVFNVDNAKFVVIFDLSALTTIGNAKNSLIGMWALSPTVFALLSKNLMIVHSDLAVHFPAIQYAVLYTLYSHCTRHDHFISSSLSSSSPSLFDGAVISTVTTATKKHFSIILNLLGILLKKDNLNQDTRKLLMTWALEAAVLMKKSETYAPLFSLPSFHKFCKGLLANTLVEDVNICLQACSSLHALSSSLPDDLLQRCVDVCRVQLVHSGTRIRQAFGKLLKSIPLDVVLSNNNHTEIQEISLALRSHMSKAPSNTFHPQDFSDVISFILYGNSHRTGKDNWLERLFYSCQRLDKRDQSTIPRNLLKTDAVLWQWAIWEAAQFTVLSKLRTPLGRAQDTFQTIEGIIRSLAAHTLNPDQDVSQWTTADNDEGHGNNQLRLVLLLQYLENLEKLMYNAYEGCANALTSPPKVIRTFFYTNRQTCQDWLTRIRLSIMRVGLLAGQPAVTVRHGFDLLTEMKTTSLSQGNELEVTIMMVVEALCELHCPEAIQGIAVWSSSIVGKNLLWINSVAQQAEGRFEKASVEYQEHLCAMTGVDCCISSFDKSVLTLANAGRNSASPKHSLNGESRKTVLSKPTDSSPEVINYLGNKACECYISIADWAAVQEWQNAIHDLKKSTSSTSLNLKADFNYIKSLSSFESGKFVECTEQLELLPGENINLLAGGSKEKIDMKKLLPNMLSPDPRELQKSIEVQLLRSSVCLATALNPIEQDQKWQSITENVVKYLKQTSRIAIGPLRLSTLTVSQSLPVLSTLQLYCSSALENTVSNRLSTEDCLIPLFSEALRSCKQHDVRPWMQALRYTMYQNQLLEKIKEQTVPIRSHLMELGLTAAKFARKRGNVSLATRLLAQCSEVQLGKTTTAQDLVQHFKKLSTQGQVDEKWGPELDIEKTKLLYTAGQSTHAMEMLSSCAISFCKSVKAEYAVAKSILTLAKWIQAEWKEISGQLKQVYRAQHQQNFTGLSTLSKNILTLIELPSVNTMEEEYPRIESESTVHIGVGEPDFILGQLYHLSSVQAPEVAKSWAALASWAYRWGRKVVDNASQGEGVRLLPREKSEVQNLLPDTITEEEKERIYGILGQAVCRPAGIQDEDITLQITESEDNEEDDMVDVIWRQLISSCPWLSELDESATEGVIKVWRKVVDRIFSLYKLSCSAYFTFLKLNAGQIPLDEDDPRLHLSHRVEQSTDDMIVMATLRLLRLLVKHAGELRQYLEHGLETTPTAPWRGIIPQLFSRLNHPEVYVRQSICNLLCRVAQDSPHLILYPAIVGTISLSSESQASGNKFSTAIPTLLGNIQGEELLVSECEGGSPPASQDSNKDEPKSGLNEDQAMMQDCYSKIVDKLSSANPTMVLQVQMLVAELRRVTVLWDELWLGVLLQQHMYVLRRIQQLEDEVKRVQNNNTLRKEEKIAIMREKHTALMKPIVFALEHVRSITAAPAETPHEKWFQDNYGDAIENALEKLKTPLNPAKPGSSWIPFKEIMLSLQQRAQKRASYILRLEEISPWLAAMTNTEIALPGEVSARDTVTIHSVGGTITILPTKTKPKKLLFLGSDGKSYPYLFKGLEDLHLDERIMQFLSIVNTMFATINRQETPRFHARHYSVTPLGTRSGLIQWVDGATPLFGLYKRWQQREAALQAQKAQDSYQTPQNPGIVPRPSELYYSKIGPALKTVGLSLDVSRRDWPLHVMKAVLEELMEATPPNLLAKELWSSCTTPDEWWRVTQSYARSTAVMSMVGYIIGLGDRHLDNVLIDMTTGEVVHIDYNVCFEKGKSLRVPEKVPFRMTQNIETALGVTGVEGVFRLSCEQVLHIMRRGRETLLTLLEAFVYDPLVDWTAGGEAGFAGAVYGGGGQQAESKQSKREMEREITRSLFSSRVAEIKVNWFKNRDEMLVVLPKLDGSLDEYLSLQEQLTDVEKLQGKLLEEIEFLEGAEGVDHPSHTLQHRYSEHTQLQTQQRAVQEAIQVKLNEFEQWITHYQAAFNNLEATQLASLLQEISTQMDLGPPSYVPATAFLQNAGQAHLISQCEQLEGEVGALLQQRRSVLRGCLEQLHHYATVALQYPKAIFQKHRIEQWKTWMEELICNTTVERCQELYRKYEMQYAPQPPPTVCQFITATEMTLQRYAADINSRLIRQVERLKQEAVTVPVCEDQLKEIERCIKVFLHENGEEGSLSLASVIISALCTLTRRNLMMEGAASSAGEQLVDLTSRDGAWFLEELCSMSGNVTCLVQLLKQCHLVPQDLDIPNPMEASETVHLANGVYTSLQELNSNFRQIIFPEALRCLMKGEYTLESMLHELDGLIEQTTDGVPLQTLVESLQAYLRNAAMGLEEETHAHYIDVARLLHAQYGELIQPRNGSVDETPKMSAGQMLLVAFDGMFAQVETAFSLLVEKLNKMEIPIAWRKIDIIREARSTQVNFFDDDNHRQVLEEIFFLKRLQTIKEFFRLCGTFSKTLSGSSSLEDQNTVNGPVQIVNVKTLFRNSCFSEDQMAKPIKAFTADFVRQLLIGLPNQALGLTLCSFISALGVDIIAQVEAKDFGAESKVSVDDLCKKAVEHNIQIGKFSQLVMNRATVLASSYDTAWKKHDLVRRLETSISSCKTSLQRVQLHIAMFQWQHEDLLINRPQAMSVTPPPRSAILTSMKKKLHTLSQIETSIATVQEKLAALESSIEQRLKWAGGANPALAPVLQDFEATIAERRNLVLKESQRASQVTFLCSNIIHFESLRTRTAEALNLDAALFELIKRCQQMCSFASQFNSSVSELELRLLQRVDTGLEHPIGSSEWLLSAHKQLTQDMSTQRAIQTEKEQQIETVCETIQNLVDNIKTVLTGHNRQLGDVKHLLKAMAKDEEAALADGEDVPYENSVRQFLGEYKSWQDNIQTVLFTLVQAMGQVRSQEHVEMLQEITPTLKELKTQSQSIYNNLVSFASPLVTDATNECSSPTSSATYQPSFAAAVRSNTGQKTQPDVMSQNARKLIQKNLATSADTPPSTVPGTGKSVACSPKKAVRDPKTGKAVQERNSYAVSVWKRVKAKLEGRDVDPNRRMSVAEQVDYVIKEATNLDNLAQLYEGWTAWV

phosphorylation of hUPF1 (P-hUPF1/hUPF1) in HeLa TetOff cells transfected with siRNA against p130, relative to control siRNA: ~40%
B1: SMGBP1 (SMG Binding Protein 1) (other)
chain: MAGPVSLRDLLMGASAWMGSESPGGSPTEGGGSAAGGPEPPWREDEICVVGIFGKTALRLNSEKFSLVNTVCDRQVFPLFRHQDPGDPGPGIRTEAGAVGEAGGAEDPGAAAGGSVRGSGAVAEGNRTEAGSQDYSLLQAYYSQESKVLYLLLTSICDNSQLLRACRALQSGEAGGGLSLPHAEAHEFWKHQEKLQCLSLLYLFSVCHILLLVHPTCSFDITYDRVFRALDGLRQKVLPLLKTAIKDCPVGKDWKLNCRPCPPRLLFLFQLNGALKVVPPRNQDPAHPDKPKKHSPKRRLQHALEDQIYRIFRKSRVLTNQSINCLFTVPANQAFVYIVPGSQEEDPVGMLLDQLRSHCTVKDPESLLVPAPLSGPRRYQVMRQHSRQQLSFHIDSSSSSSSGQLVDFTLWEFLWQHVELVLSKKGFDDSVGRNPQPSHFELPTYQKWISAASKLYEVAIDGKEEDLGSPTGELTSKILSSIKVLEGFLDIDTKFSENRCQKALPMAHSAYQSNLPHNYTMTVHKNQLAQALRVYSQHARGPAFHKYAMQLHEDCYKFWSNGHQLCEERSLTDQHCVHKFHSLPKSGEKPEADRNPPVLYHNSRARSTGACNCGRKQAPRDDPFDIKAANYDFYQLLEEKCCGKLDHINFPVFEPSTPDPAPAKNESSPAPPDSDADKLKEKEPQTQGESTSLSLALSLGQSTDSLGTYPADPQAGGDNPEVHGQVEVKTEKRPNFVDRQASTVEYLPGMLHSNCPKGLLPKFSSWSLVKLGPAKSYNFHTGLDQQGFIPGTNYLMPWDIVIRTRAEDEGDLDTNSWPAPNKAIPGKRSAVVMGRGRRRDDIARAFVGFEYEDSRGRRFMCSGPDKVMKVMGSGPKESALKALNSDMPLYILSSSQGRGLKPHYAQLMRLFVVVPDAPLQIILMPQVQPGPPPCPVFYPEKQEITLPPDGLWVLRFPYAYVTERGPCFPPKENVQLMSYKVLRGVLKAVTQ
